{"source": "patent US20250018037A1", "about": "(SEOUL NATIONAL UNIVERSITY R AND DB FOUNDATION, published 2025)", "key": {"[1]": {"target": "T1, Biotin conjugated 6×His peptide (also: biotin conjugated, site not given here)", "T1 construct": "also called histidine hexamer peptide", "T1 peptide": "HHHHHH", "experiment": "SPR, Biacore 8K; reference is the parental murine anti-His antibody", "excerpt": "(§1) Since the murine anti-His antibody had decreased binding affinity against 6×His peptide after humanization, affinity maturation was further performed to increase it and chicken anti-CD40 antibody (2B1) was only humanized. Serial dilution antibodies at 6 concentrations were used to characterize the kinetics of antibody-antigen binding by SPR. […] So, there was not affinity loss against their antigen after humanization (FIG. 22B).\n(§2) A Biacore 8K SPR system (Cytiva) equipped with CM5 sensor chip (Cytiva) was used to generate binding kinetic rate and affinity constants. To prepare the capture surfaces for anti-His antibodies, streptavidin was immobilized, followed by biotin conjugated 6×His peptide was captured. The antibodies were 2-fold serial diluted with 1×PBS, then injected at a flow rate of 30 μL/min for 3 minutes, allowing 10 minutes dissociation phase. The surface was regenerated using 10 mM glycine, pH 1.5. The kinetics were analyzed using Biacore 8K evaluation software, version 1.0 (Cytiva). In case of anti-CD40 antibodies, anti-human Fc IgG (Jackson ImmunoResearch) was immobilized, and then CD40-hFc protein (Acro Biosystems, #CD0-H5253) was captured. The antibodies were 2-fold serial diluted with HBS-EP+ buffer (10 mm HEPES, 150 mm sodium chloride, 3 mm EDTA, 0.05% Polysorbate 20), then injected at a flow rate of 30 μL/min for 4 minutes, allowing >15 minutes dissociation phase."}, "[2]": {"target": "T1, Biotin conjugated 6×His peptide", "experiment": "SPR, Biacore 8K, CM5 chip; biotin 6×His peptide captured on streptavidin, scFv injected in 2-fold dilutions", "excerpt": "as §1, §2"}, "[3]": {"target": "T1, Biotin conjugated 6×His peptide", "experiment": "SPR (Biacore 8K): biotin 6×His peptide captured on immobilized streptavidin, scFv injected in 2-fold dilutions (6 curves)", "excerpt": "as §1, §2"}}, "note": "No end group written: not given here.", "data": [{"binder": "Humanized and affinity maturated anti-His scFv (hu3D5M) (scFv, also called humanized anti-His) scFv: DIVMTQSPLSLPVTPGEPASISCRSSQSIVHSNRNTYLEWYLQKPGQSPQLLIYKVSNRFSGVPDRFSGSGSGTDFTLKISRVEAEDVGVYYCFQGSHVPFTFGQGTKLEIKRGGGGSGGGGSGGGGSGGGGSQVQLVQSGAEVKKPGASVKVSCKASGYTFTDYYMNWVRQAPGQGLEWMGDINPNHGGTYYNHKFKGRVTMTVDTSTSTAYMELRSLRSDDTAVYYCESQSGAYWGQGTTVTVSS", "values": [{"measurement": "fold higher affinity than parental antibody", "setting": "[1]", "result": 5.8, "unit": "fold"}, {"measurement": "Kd", "setting": "[2]", "result": 2.15, "unit": "nM"}, {"measurement": "koff", "setting": "[3]", "result": 0.00094, "unit": "s⁻¹"}, {"measurement": "kon", "setting": "[3]", "result": 437000, "unit": "M⁻¹ s⁻¹"}]}]}
